Laboratory results reported in patent US20230190943A1, “ALGINIC ACID DERIVATIVE BONDED TO NONSTEROIDAL ANTI-INFLAMMATORY COMPOUND” (MOCHIDA PHARMACEUTICAL CO., LTD., priority 2018, published 2023).

Tests used:
[1] = Release test of free diclofenac from conjugates in 20 mM sodium phosphate buffer, 37°C (Example 11); assay type: physicochemical; details: for Release Rate in Release Test at pH 5.3: pH 5.3, 37°C; for Release Rate in Release Test at pH 5.3 / Release Rate in Release Test at pH 7.0: free diclofenac; for Release Rate in Release Test at pH 7.0: pH 7.0, 37°C
Procedure: (§1) (set temperature of air conditioner). After confirming that no gel was formed, this solution was dispensed. Immediately after the dissolution, the amount of free diclofenac present in each solution was measured by LC-MS/MS as an initial state (day 0 of storage). Also, the other dispensed solutions were incubated at 37° C. for 1, 3, and 7 days, and then the amount of free diclofenac was measured. […] The MS conditions are as follows. • Ionization mode: ESI-negative • Ion source temperature: 300 degrees • Capillary voltage: -4000 V

[2] = Release test of free diclofenac, felbinac, ketoprofen or naproxen in sodium phosphate buffer (Example 23); assay type: physicochemical
Procedure: as §1

[3] = pH 5.3, day 1, free drug (diclofenac, felbinac, ketoprofen or naproxen)
[4] = pH 5.3, day 3, free drug (diclofenac, felbinac, ketoprofen or naproxen)
[5] = pH 5.3, day 7, free drug (diclofenac, felbinac, ketoprofen or naproxen)
[6] = pH 7.0, day 1, free drug (diclofenac, felbinac, ketoprofen or naproxen)
[7] = pH 7.0, day 3, free drug (diclofenac, felbinac, ketoprofen or naproxen)
[8] = pH 7.0, day 7, free drug (diclofenac, felbinac, ketoprofen or naproxen)

Substance	Release Rate in Release Test at pH 5.3 ([1]; Day 1, 0.1% w/w conjugate) [%]	Release Rate in Release Test at pH 5.3 ([1]; Day 3, 0.1% w/w conjugate) [%]	Release Rate in Release Test at pH 5.3 ([1]; Day 7, 0.1% w/w conjugate) [%]	Release behaviour in the release test at pH 7.0 (in words) [1]	Release Rate in Release Test at pH 7.0 ([1]; Day 1, 0.1% w/w conjugate) [%]	Release Rate in Release Test at pH 7.0 ([1]; Day 3, 0.1% w/w conjugate) [%]	Release Rate in Release Test at pH 7.0 ([1]; Day 7, 0.1% w/w conjugate) [%]	Release Rate in Release Test at pH 5.3 [2, 3] [%]	Release Rate in Release Test at pH 5.3 [2, 4] [%]	Release Rate in Release Test at pH 5.3 [2, 5] [%]	Release Rate in Release Test at pH 7.0 [2, 6] [%]	Release Rate in Release Test at pH 7.0 [2, 7] [%]	Release Rate in Release Test at pH 7.0 [2, 8] [%]
Diclofenac-(2-Aminoethanol)-Alginic Acid Derivative [Compound 5c]	0.0	0.1	0.4	stably released	0.3	2.5	5.5	–	–	–	–	–	–
Diclofenac-(2-Amino-N-(3-Hydroxypropyl)Acetamide)-Alginic Acid Derivative [Compound 76b]	–	–	–	–	–	–	–	0.3	0.5	0.6	0.4	1.4	3.6
Diclofenac-(2-Amino-N-(1-Hydroxypropan-2-Yl)Acetamide)-Alginic Acid Derivative [Compound 80b]	–	–	–	–	–	–	–	0.2	0.3	0.7	0.7	2.3	5.6
Diclofenac-(2-Aminoethoxyethanol)-Alginic Acid Derivative [Compound 14]	0.0	0.0	0.0	–	0.0	0.0	0.0	–	–	–	–	–	–
Diclofenac-(2-Aminoethanol)-Alginic Acid Derivative [Compound 5d]	0.0	0.1	0.4	stably released	0.2	2.4	5.1	–	–	–	–	–	–
Diclofenac-(2-Aminoethoxyethanol)-Alginic Acid Derivative [Compound 14a]	–	–	–	–	–	–	–	0.1	0.2	0.4	0.6	1.9	4.2
Diclofenac-(N-(Aminoethyl)-2-Hydroxyacetamide)-Alginic Acid Derivative [Compound 42]	0.0	0.5	3.3	stably released	1.8	10.2	21.0	–	–	–	–	–	–
Diclofenac-(Serine Ethyl Ester)-Alginic Acid Derivative [Compound 19]	0.0	0.0	0.0	–	0.0	0.8	12.3	–	–	–	–	–	–
Diclofenac-(2-Amino-N-(6-Hydroxyhexyl)Acetamide)-Alginic Acid Derivative [Compound 68]	–	–	–	–	–	–	–	0.0	0.2	0.3	0.3	0.9	2.1
Diclofenac-(N-(Aminoethyl)-2-Hydroxypropanamide)-Alginic Acid Derivative [Compound 47]	0.0	0.1	0.7	stably released	0.8	6.1	10.9	–	–	–	–	–	–
Diclofenac-((4-(Aminomethyl)Phenyl)Methanol)-Alginic Acid Derivative [Compound 28]	0.0	0.1	0.3	–	0.1	1.2	4.0	–	–	–	–	–	–
Diclofenac-(2-Amino-1-(4-Hydroxypiperidin-1-Yl)Ethan-1-One)-Alginic Acid Derivative [Compound 63b]	–	–	–	–	–	–	–	0.1	0.1	0.2	0.7	1.9	2.5
Diclofenac-(2-Aminoethanol)-Alginic Acid Derivative [Compound 5a]	0.0	0.1	0.2	–	0.2	2.3	4.1	–	–	–	–	–	–
Diclofenac-(2-Amino-N-(2-Hydroxypropyl)Acetamide)-Alginic Acid Derivative [Compound 72a]	–	–	–	–	–	–	–	0.0	0.1	0.2	0.3	1.0	2.2
Diclofenac-(2-Amino-N-(2-Hydroxyethyl)Acetamide)-Alginic Acid Derivative [Compound 53c]	–	–	–	–	–	–	–	0.5	0.9	1.0	0.9	2.5	7.4
Diclofenac-(2-Amino-N-(2-Hydroxypropyl)Acetamide)-Alginic Acid Derivative [Compound 72b]	–	–	–	–	–	–	–	0.0	0.1	0.2	0.4	1.5	3.7
Diclofenac-(2-Amino-N-(3-Hydroxypropyl)Acetamide)-Alginic Acid Derivative [Compound 76a]	–	–	–	–	–	–	–	0.1	0.2	0.4	0.5	1.3	3.5
Felbinac-(2-Amino-N-(2-Hydroxyethyl)Acetamide)-Alginic Acid Derivative [Compound 84]	–	–	–	–	–	–	–	0.2	0.3	0.5	0.9	3.3	7.3
Diclofenac-(Tyramine)-Alginic Acid Derivative [Compound 32]	0.0	1.5	7.6	–	0.0	5.7	15.2	–	–	–	–	–	–
Diclofenac-(2-Aminoethoxyethanol)-Alginic Acid Derivative [Compound 14b]	–	–	–	–	–	–	–	0.1	0.2	0.5	–	–	–
Diclofenac-(2-Amino-1-(4-(Hydroxymethyl)Piperidin-1-Yl)Ethan-1-One)-Alginic Acid Derivative [Compound 58]	–	–	–	–	–	–	–	0.0	0.2	0.3	0.3	1.3	3.1
Diclofenac-(2-Amino-N-(2-Hydroxyethyl)Acetamide)-Alginic Acid Derivative [Compound 53a]	–	–	–	–	–	–	–	0.1	0.4	0.8	0.9	3.7	10.0
Diclofenac-(2-Amino-N-(2-Hydroxyethyl)Acetamide)-Alginic Acid Derivative [Compound 53d]	–	–	–	–	–	–	–	0.1	0.5	0.6	0.7	3.0	9.3
Diclofenac-(2-Amino-N-(1-Hydroxypropan-2-Yl)Acetamide)-Alginic Acid Derivative [Compound 80a]	–	–	–	–	–	–	–	0.2	0.4	0.6	0.8	2.4	5.3
